According to US10914725B2, “Culture medium additive, culture medium composition, and method for culturing cells or tissue using same” (NISSAN CHEMICAL INDUSTRIES, LTD., priority 2015, dated 2021):

System: human ovarian cancer cell line SKOV3
Test: Cell proliferation test by dispersing SKOV3 cells with growth factors (Experimental Example 4)
Assay type: cell-based
Details: 10 days
Procedure: By a method similar to the preparation method of medium composition in Analysis Example 1, a medium composition containing 10 (v/v) % FBS, and 0.03 (w/v) % of low-molecular agar in DMEM (manufactured by Wako Pure Chemical Industries, Ltd.) was prepared.
Then, human ovarian cancer cell line SKOV3 (manufactured by DS PHARMA BIOMEDICAL CO., LTD.) was suspended in the above-mentioned medium composition containing low-molecular agar at 37,000 cells/mL, and dispensed to the wells of a 96 well flat plane ultra-low attachment surface microplate (manufactured by Corning Incorporated, #3474) at 135 μL per 1 well. The plate was stood in a CO2 incubator (37° C., 5% CO2), and a growth factor was added the next day. A similar operation was performed with 10 (v/v) % FBS-containing DMEM free of low-molecular agar. As a growth factor, human heparin bindability epithelial cell growth factor (hHB-EGF) (manufactured by PeproTech, Inc.) at a final concentration of 30 ng/mL or 100 ng/mL, human epithelial cell growth factor (hEGF) (manufactured by PeproTech, Inc.) and human transforming growth factor α (hTGFα) (manufactured by PeproTech, Inc.) each at a final concentration of 1 ng/mL, 3 ng/mL or 10 ng/mL were added by 15 μL per 1 well.
Successively, the plate was cultured in a standing state in a CO2 incubator (37° C., 5% CO2) for 10 days. As a negative control, DMEM in an amount equal to that of a growth factor was added. CellTiter-Glo Luminescent Cell Viability Assay (manufactured by Promega) (100 μL) was added to the cell culture medium after culturing for 10 days, stood for 10 min at room temperature, and the amount of luminescence was measured by a microplate reader (“FlexStation 3”, manufactured by Molecular Devices) and according to the protocol recommended by Promega. The amount of luminescence of the medium composition alone was subtracted, whereby the number of viable cells was measured.
The relative cell number when the amount of luminescence of the negative control is 1 was determined from the amount of luminescence (corresponding to the number of SKOV3 cells) after culturing for 10 days after the addition of the growth factor, and shown in Table 11.

B1: hEGF: human epithelial cell growth factor (PeproTech) (protein, UniProt P01133 23-1207, looked up)
Pro-epidermal growth factor: PQHWSCPEGTLAGNGNSTCVGPAPFLIFSHGNSIFRIDTEGTNYEQLVVDAGVSVIMDFHYNEKRIYWVDLERQLLQRVFLNGSRQERVCNIEKNVSGMAINWINEEVIWSNQQEGIITVTDMKGNNSHILLSALKYPANVAVDPVERFIFWSSEVAGSLYRADLDGVGVKALLETSEKITAVSLDVLDKRLFWIQYNREGSNSLICSCDYDGGSVHISKHPTQHNLFAMSLFGDRIFYSTWKMKTIWIANKHTGKDMVRINLHSSFVPLGELKVVHPLAQPKAEDDTWEPEQKLCKLRKGNCSSTVCGQDLQSHLCMCAEGYALSRDRKYCEDVNECAFWNHGCTLGCKNTPGSYYCTCPVGFVLLPDGKRCHQLVSCPRNVSECSHDCVLTSEGPLCFCPEGSVLERDGKTCSGCSSPDNGGCSQLCVPLSPVSWECDCFPGYDLQLDEKSCAASGPQPFLLFANSQDIRHMHFDGTDYGTLLSQQMGMVYALDHDPVENKIYFAHTALKWIERANMDGSQRERLIEEGVDVPEGLAVDWIGRRFYWTDRGKSLIGRSDLNGKRSKIITKENISQPRGIAVHPMAKRLFWTDTGINPRIESSSLQGLGRLVIASSDLIWPSGITIDFLTDKLYWCDAKQSVIEMANLDGSKRRRLTQNDVGHPFAVAVFEDYVWFSDWAMPSVMRVNKRTGKDRVRLQGSMLKPSSLVVVHPLAKPGADPCLYQNGGCEHICKKRLGTAWCSCREGFMKASDGKTCLALDGHQLLAGGEVDLKNQVTPLDILSKTRVSEDNITESQHMLVAEIMVSDQDDCAPVGCSMYARCISEGEDATCQCLKGFAGDGKLCSDIDECEMGVPVCPPASSKCINTEGGYVCRCSEGYQGDGIHCLDIDECQLGEHSCGENASCTNTEGGYTCMCAGRLSEPGLICPDSTPPPHLREDDHHYSVRNSDSECPLSHDGYCLHDGVCMYIEALDKYACNCVVGYIGERCQYRDLKWWELRHAGHGQQQKVIVVAVCVVVLVMLLLLSLWGAHYYRTQKLLSKNPKNPYEESSRDVRSRRPADTEDGMSSCPQPWFVVIKEHQDLKNGGQPVAGEDGQAADGSMQPTSWRQEPQLCGMGTEQGCWIPVSSDKGSCPQVMERSFHMPSYGTQTLEGGVEKPHSLLSANPLWQQRALDPPHQMELTQ
modifications: Pro-epidermal growth factor
With B1 the “relative cell number (negative control = 1)” value (from here on “relative cell number”) (growth factor 1 ng/mL, low-molecular agar 0 (w/v)%) was 1.380, the “relative cell number” value (growth factor 1 ng/mL, low-molecular agar 0.03 (w/v)%) was 1.413 and the “relative cell number” value (growth factor 3 ng/mL, low-molecular agar 0 (w/v)%) was 1.392. The “relative cell number” value (growth factor 3 ng/mL, low-molecular agar 0.03 (w/v)%) was 1.745, the “relative cell number” value (growth factor 10 ng/mL, low-molecular agar 0 (w/v)%) was 1.678 and the “relative cell number” value (growth factor 10 ng/mL, low-molecular agar 0.03 (w/v)%) was 1.984.

B2: hHB-EGF: human heparin bindability epithelial cell growth factor (PeproTech) (protein, UniProt Q99075 63-148, looked up)
Heparin-binding EGF-like …: DLQEADLDLLRVTLSSKPQALATPNKEEHGKRKKKGKGLGKKRDPCLRKYKDFCIHGECKYVKELRAPSCICHPGYHGERCHGLSL
With B2 the “relative cell number” value (growth factor 30 ng/mL, low-molecular agar 0 (w/v)%) was 1.358, the “relative cell number” value (growth factor 30 ng/mL, low-molecular agar 0.03 (w/v)%) was 1.774 and the “relative cell number” value (growth factor 100 ng/mL, low-molecular agar 0 (w/v)%) was 1.451. The “relative cell number” value (growth factor 100 ng/mL, low-molecular agar 0.03 (w/v)%) was 1.748.
